Test results as given in a protein production outcome set (Wang et al. 2014).

Assay: label from the status in PepcDB records
In the case of “MPVDAKTKYKAKKIKIVFFDIDDTLRVKKTGYIPESIKAVFKGLKEKGILTGIATGRGYYGVVEEILDLEPDYFVTINGTYVINRKGEEIYNQPLAREVTEAFVAWCKEIGIAWGFAGKDKPVVSERSELIDDAIVPIYGICDVEPDFHLTNDVYQMWTFAENNGDLKLPEELAAHVRLVPWHEHSSDVVATGISKASGVGHVLEHENLTPVNAMMFGDGPNDKEIFDYVGLKIAMGNATPELKAKADYVTGTVEEDGIFNALEELGLVEKELHFPQLDLDTVEGPVATIKTNHGDLVIKLFPDHAPLAVTNFVNLAKSGYYDGVIFHRIIKDFMIQGGDPTGTGMGGESSFGGSFQDEFSEELYNLRGALSMANAGPDTNGSQFFIVQAPEIPYAKKELERGGWPAPIAEAYAENGGTPHLDRRHTVFGHLVDEASYKVLDEIANVEVGTQDKPLEEVVIETIEVTDLEHHHHHH”, the protein production is reported as “not failed”. With “MPVDKNLRDLEPGIHTDLEGRLTYGGYLRLDQLLSAQQPLSEPAHHDEMLFIIQHQTSELWLKLLAHELRAAIVHLQRDEVWQCRKVLARSKQVLRQLTEQWSVLETLTPSEYMGFRDVLGPSSGFQSLQYRYIEFLLGNKNPQMLQVFAYDPAGQARLREVLEAPSLYEEFLRYLARFGHAIPQQYQARDWTAAHVADDTLRPVFERIYENTDRYWREYSLCEDLVDVETQFQLWRFRHMRTVMRVIGFKRGTGGSSGVGFLQQALALTFFPELFDVRTSVGVDNRPPQGSADAGKRLEHHHHHH” the protein production was “not failed”. With “MPVNSILGVFAKSPIKPLQEHMDKVYDCASLLVPFFEATITGNWDDAVQIRKQISLAEKQGDSLKREIRLTLPSGLFMPVERTDLLELLTQQDKIANKAKDISGRVIGRQLLIPQALQVPFIAYLQRCIDAVGLAQQVINELDDLLEAGFRGREVDFVAKMINELDIIEEDTDDLQIQLRRQLFALESELNPVDVMFLYKTIEWVGGLADLAERVGSRLELMLARV” the protein production was “not failed”. In the case of “MPVQENSFKSYSEVITGSIIYGTIGVFLDRVQDMSVGSVLFCRLLFGVFMIFFYLLLSGSLEQLRLRRNRKYLLLLGFLNAVTGICYLSAIRHSGISTAVLLLYTAPVYVNLLAPAILGEKGSSKSFLPLILSVLGVLLITRPGEILFNINAGSEFIKGLLYGILSGISFGTTIILIRYLRHDYTGISQTFWLTGVSLLFMLPSALLTPASVFLKNFDTLFLFGITITFAAILYLRGISGIKAQTGSILALLEPVSGIFFDTVVLRSPFYISTLLGCVLILTAAYLVSRNGTGDQSLKTDNQPVL”, the protein production is reported as “failed”. For “MPVRVSLELLRVGHCRHCERMVRADGHWHAVEFPALSVLIRHPQRGALLYDTGYAAHFFRATDAWPERLYRLTTPVRLPAHETLGAQLSKRGVALDDIAWCLISHFHADHVGGLRDLPNARFMCSRADHQQLRSCSRVGGLRRALLPQLLPDDFDQRLQFADQAPQRALTGAWQGLGPAYDLFEDGSVLAVSLPGHVPGQMGLRVRDQHDREVLLCADAVWSSATWATLQWPAWPTRLLMHDWHAFQRTVHRLHALSHAHPELAILPSHCQPSLDRYQPEWR”, the protein production was “failed”. For “MPWIQVYTPVAGSLGLSALVAAIPLVVIFVCLALFKMKAHKAGLLALASAMLIAITVWGMPAKLAGLATAQGAAFGLFPVFYIVITTIFLYNITVKGGQFEIIRASLAGVTADRRLQALLIAFCFGAFIEGAAGFGTPVAIAGATLAGLGFQPLYAAGVCLVANTAPVAFGAIGIPIVALAGVMGYGDDGMMKLSTMVGRQLPFISVIIPFYVIMIMVGWKKTIEILPAIIVCGVTFALSQWATATYLGPYLPDVTASLASIIALVLLLRVWQPKTIYTFAHEAPVTGATEHHYTTGEVFRAWSPYLALTVMVLLWGIPSIKTVLDKSTVEIEVKGLHNMIVKKVAKPEDTLTKIAAASAEIDRQLTLLSPADPKQAAIAAKLMELKAFETQLAAVEQGLVGQGAVLTDERLKACDIVSKKMAETQKLCKELVKTAAVPANQFKPLDKALADHLPLKVAAKYKFNFMSAAGTAILIAAFLSALICGVGFADTFRILGKTLYDMRFPALTVASVLGLAYVMNASGMTNCLGLIFTKTGHWFPFIAPFLGWLGVFLTGSDTSSNVLFGGLQKATAEQLGISPILTGAANTSGGVMGKMISPQSLAVATAATGMVGEEGTLFRFTLKHSIFLTILVGIIVYLQAYVLQWMIP”, the protein production was “failed”. In the case of “MPYERKIINDPVFGFINIPKGLLYDIVRHPLLQRLTRIKQVGLSSVVYPGAQHTRFQHSLGAFYLMSEAITQLTSKGNFIFDSEAEAVQAAILLHDIGHGPFSHVLEDTIVQGVSHEEISLMLMERMNKEMNGQLSLAIQIFKDEYPKRFLHQLVSGQLDMDRLDYLRRDSFYTGVTEGNIGSARIIKMLDVADDRLVIESKGIYSIENFLTARRLMYWQVYLHKTSVAYERMLISTLLRAKELASQGVELFASPALHFFLYNDINHTEFHNNPDCLENFIQLDDNDIWTALKVWSNHPDKVLSTLSLGMINRNIFKVENSAEPIGEDRIKELTLQISQQLGITLSEANYFVSTPSIEKNMYDPADDSIDIIYKDGTIKNIAEASDMLNISLLSKKVKKYYLCYQRLHR”, the protein production is reported as “not failed”. For “MPYFLIHNKNDNVGVAIADIKTGQEVEGIYIEDMTQGPKIKAISDIPLGHKIALKDIRQSDIVIKYGRPIGSAIKDIKVGEHVHVHNIRSNRWGKWKNQ”, the protein production was “not failed”. For “MPYTLQHLESEAALAASFDLMRVLRPHLTSPAAYVAQWARQTEQGYRLLAAWDAERIVGLAGYRELENLLYGRFIYVDDLVVSPDLQRSGLGARLLSAVRDEAVQRQCEHFVLDTGLHMPLAQRFYFRQGLLARGMHFTQRLE”, the protein production was “failed”. For “MQAGQVATNDLTISGIVNTVPASAVFAREANPVKVLNVKNTGDETLSNISIAVYASDVSSGTVPVDTTTIASLAGDATTTVTLIDPTIRDLEGGTVTYTAVVDPDNLIAETDETNNNKSSLEHHHHHH”, the protein production was “failed”. In the case of “MQAKSEAKLAIGVIGCGNISMTYLRNAALFGGIELRACADISADMAALRAKEYGIQALGVDALLSDPEIDLVLNLTIPAAHFDISLSALSAGKHVFTEKPLATSAGDGRRLVAEAAKRGVLLGSAPDTFLGAAGRRARRLMDEGAIGRPVTGTAFMMGRGMEHWHPNPQFYYQPGGGPVFDMGPYYLTMLVNLLGPVARVMAMATRGQEERLITAEGPFKNTTFKVGTPTNVLSLLEFRSGATVTFGASWDVFKHSNHPIELHGTEGSLRLPDPDTFGGTVSLSERGADWKDFAGEGELYGARNWPYAAPDRANYRMLGVADLVRSLKTGAVPRASGNLALHVLEIMEAILHSGETKSAVAIAGDVVQPALLTEDEANSLLA”, the protein production is reported as “failed”. With “MQAQDATQLLEGVPLPLVLIGPDERIRAANAPAQRLFGAASVARHYVMAMRQPALLDAIEGAIRLDRPGRARYIITGPSREVTYRATVTPVRIHGESCALCAFEDITEQEQMGAIRRDFVANVSHELRTPLTALLGFIETLQGAARDDPAARSRFLGIMAREAGRMNRLVQDLLSLSRVESEERVRPKTPVDVTAVIGQAIAALRPMAEAAGVEIQRQGEAGPILLPGDPDQLTQVFHNLIENAVKYGASGKLVTVGISRDAEGLARLGPAVRIEVVDRGEGIDAIHLPRLTERFYRVDNHRSREKGGTGLGLAIVKHIVNRHRGRFLIESELGQGSRFIVTLPLA” the protein production was “failed”. For “MQAVRLFQGYLWHPRALALDLKALLPGEVAGARLLWDEVPPPTPFFEDGTPTHTQRFYQLTLLVLTEEPPEALKPLAEEAAEALGEVLEGLPPEVGWLLLEDLRPL”, the protein production was “not failed”. With “MQAYIDRIGDFIQANQDWAGPITFLLTFGESMVLVGLLIPATALMLLTGGLIGAGTLSPWGVLAWGIAGAIAGDAVSYALGRWLGPGVMRRWPLNTQRSAVARARLFFYRYGFASVLIGRFLGPIRSTIPTVAGIMGMHHLRFQLANVLSAVAWLPLMLAPGYITARGLGAMDNAQHIGLAAGMGASVLIGCWLLVAVMRKRRQPARANRRP” the protein production was “not failed”. For “MQCNICEVRCEINKHSTGRCGTYVSTGNTITQYPGMGYMGAYPISIEEVPLHHFYPSGKFLQIFSKGCNFQCPGCAARMPASSEPSTQQASLSPSEVVKRALKQECLGVVSTLNDPVANYYLFRDLAIQAQEKSLLVGCSTNCYFTSETLEEFGQLVDFVNVGIKGYSDRGYRNCGVTSSAPVFRNISRLFDMGVHVETSIAYSRGNEEDVIKVAEAVSDISPTIPLHVMRFLPFGYAPIELEPSIGEAEKICSDLRRYLDFVYLFNSPGTELLNTYCPECGRLLIEREFHRPFGSRLVKPWLSHKCSCGCSIPVQGKAPTEGFSEAGLMDSYSISQAFSMVHAVLTCLGVLDDYKLMDIWGEDKLMDVWSKVSNPKTLMQIHNMIRQPYSYLEFIKFIAEKANMPEKGEELVSFIHKRLQIVQNLSAGKSSYYVYYCMGSPFFALNAGRMENNLVTFSGGVSINKQLQKEGKLGVSVSPSFINEHNPGVIFVSGFLSRPLDEFYALCQKYGIHADAVTQHRVYEIPPSWDFGSPRWILGLMYITDKLHPGKLEVDLKKEADDFYLQFYGMRFKEARPNRSFHRPSSGIWPHTQTLYNYFEMEVPNQDSTKNFGNEITQPFNILPTCKIKLKE”, the protein production was “failed”. With “MQCPIEDRLAIQDLMIAYAHAVDTVSDIDAVLDVFTEDAVFDLSGIGLTPQVGHAGIREFFTNVFANMSHHAHYLTNFAVTGYEGDTASMRAYVIGMGVGKDGRAVTVNGRYFFEVRRTEKGWKATRYTMDFLMPLSGTLDNAK” the protein production was “not failed”. With “MQDHIISFTAGILSVLSPCILPVIPVIFSESLIGNRKERFLFLSGFSSLFLFTIILTAIFTAAVNYYLLYLRVPASIMLIIMGLLVLSEKPLISIRTPPAENHVLMGLLTAIAWTPCYSPYLIGVIAYSAYTGIPGALVNMALYTLGLTITLIAVTLLAEPVLRRLLRGSRDIRRASGVLIVVAGIYMLYQLIPLP” the protein production was “failed”. In the case of “MQDLIKQYNTTLRQLREAQKDAKEEDVKVLTDMISDITYSLEWMKKARRPGNRRGVERLAAYQRERACDPLLMQRYFRSMDDNLYEWDNHQQEHSIGEWDKVRLEDALSLLTEREKEVYLMSRGYCLTYREIARYLDITCSTVQSMIERAEKKIARQVNESLFCNCG”, the protein production is reported as “failed”. With “MQDSKIPPFSEAKRMKIPTPKQPLTQLPPRIGKKVSNRSKSNQVHAISHQLEMSPNSDSSPGNEYRALRRKYLLLEEDSFALERELKEAEDEVKALEDEKLELLDKLVVMEGLVDP” the protein production was “failed”. In the case of “MQDVLVIFAFFIILLSIVIALIKDLSSWVYITILLAIASWLLLFPQILSPYVVGIDAHFEHIIAEETLRTGHWDPDLSGNIVNAALSITILTPFISIVSGIPLDWVLKIILTIYPLISIPIIWKSNIHILSFSNRESFLSLLLLIGTSSFMLISVYGRQEVGLFSGLVLLYFLHFKKSSVQLSIVLIFLVIGLIFSHYSTAIILIITYAISSLFLYLFQRDKCSMRLVLFSIVFMVFWLILIVYASMASISHSFNFIYLSILDWATENSSIVVEQQLNPTFYNIFQSLNYVINIFIIIFLVIGTSYLVYSRVVKSKLESEENKKYFIFAFLSSIYILLSVLPGFSSVYNAERIYLTTLYLFSGFSLIGFKRVFVYIVTFFTKFSPIYLKKSNKYIFVVFSFFVLVHFVLQVGILPMLYYGDTNSKYFGDISEDRHYTLEEEVYAVNWLQGINNNNRIYTDFYGRGRLPLRSYGNIPTSQIVDLKEIGPTTLNLRNIIFYQQKKELNDEVSSKNFEQIEEINNFLQKYGSTLYNSGMTEVKVINLNS”, the protein production is reported as “failed”. For “MQEIIIQVMNQFGYFGVAFLIMIENIFPPIPSEVILTFGGFMTTYSELGIIGMIIAATIGSVLGALILYFVGRLLSVERLEKLVSGRLGKVLRLKPEDITKAEKWFLKRGYATIFFCRFIPLIRSLISIPAGSAKMKLPSFLILTTLGTLIWNIVLVCLGAALGDNWEMIAGILDSYSSVVVVILGIIFILAILIFVKKRFFPKNKNYSSDTEK”, the protein production was “not failed”.
